PMC2674214 (PLoS ONE, 2009)

B1: AVFluFab03 (Fab, V domains shown)
VH: LESGGGLVQPGGSLRVSCTNSGFTFSDYAMSWVRQAPGKGLEWVSAISGNGGSSTYYADSVKGRFTISRDNSKNTMYLQMNSLRAEDTAVYYCVRDDSYDGGGQYGLHNWFDSWGQGTLVTV
VL: ELTQPPSVSGAPGQRVTISCTGSSSNIGAGYDVHWYQQLPGTAPKLLIYGNSNRPSGVPDRFSGSKSGTSASLAITGLQAEDEADYYCQSYDSSLVVFGGGTKLTVL
notes: also called Fab clone representing 25 of the 43 selected Fab clones; source: phagemid vector pComb3H, crude Fab antibody preparations
B2: AVFluIgG03 (antibody, V domains shown)
VH: B1 VH
VL: B1 VL
notes: also called rhAb AVFluIgG03; AVFluIg03; source: SF9 cells, purified on a Protein A column

Tests used:
[1] = target: T1, hemagglutinin (HA) of A/Anhui/1/2005 (H5N1) virus (Influenza A virus A/Anhui/1/2005 (H5N1), UniProt Q1WDM0); test: ELISA; conditions: one partner purified
[2] = target: rHA of clade 0 H5N1 virus A/HongKong/156/97 (Influenza A virus A/Hong Kong/156/1997 …, UniProt O56140); test: ELISA
[3] = target: T1, hemagglutinin (HA) of A/Anhui/1/2005 …; test: immunostaining of cells or tissue; conditions: one partner purified
[4] = target: T2, rHA of AH/1/05 virus (full length HA) (Influenza A virus A/Anhui/1/2005 (H5N1), UniProt Q1WDM0); test: immunostaining of cells or tissue; conditions: one partner purified
T2 construct: source: SF-9 cells infected with recombinant baculovirus (pAcUW51), on fixed cells

[5] = target: T3, rHA1 of AH/1/05 virus (Influenza A virus A/Anhui/1/2005 (H5N1), UniProt Q1WDM0, strain); test: immunostaining of cells or tissue; conditions: one partner purified
T3 construct: source: SF-9 cells infected with recombinant baculovirus (pAcUW51), on fixed cells

[6] = target: T4, rHA2 of AH/1/05 virus (Influenza A virus A/Anhui/1/2005 (H5N1), UniProt Q1WDM0, strain); test: immunostaining of cells or tissue; conditions: one partner purified
T4 construct: source: SF-9 cells infected with recombinant baculovirus (pAcUW51), on fixed cells

Binder | binding result [1] | binding result [2] | binding result [3] | binding result [4] | binding result [5] | binding result [6]
B1 | binds |  |  |  |  | 
B2 |  | no binding | binds | binds | binds | no binding
